Measurements from US20220324969A1 (MYTHIC THERAPEUTICS, published 2022).
Changes are numbered by the printed parent chain. Names may count otherwise.

B1: MYT0494 (antibody, V domains shown)
VH: EVQLVQSGAEVKKPGSSVKVSCKASGYTITDSNIHWVRQAPGQSLEWIGYIHPYNGGTDYNQKFKNRATLTVDNPTNTAYMELSSLRSEDTDFYYCVNGNPWLAYWGQGTLVTVSS
VL: DIQLTQSPSTLSASVGDRVTITCRASESLDNYGIRFLTWFQQKPGKAPKLLMYAASNQGSGVPSRFSGSGSGTEFTLTISSLQPDDFATYYCQQTKEVPWSFGQGTKVEVK
notes: IgG; gemtuzumab VH variant #13 (Y52H)
B2: MYT0498 (antibody, V domains shown)
VH: B1 VH with H52Y, G56H
VL: B1 VL
notes: IgG; gemtuzumab VH variant #17 (G56H)
B3: MYT0507 (antibody, V domains shown)
VH: B1 VH with H52Y, K65H
VL: B1 VL
notes: IgG; gemtuzumab VH variant #26 (K65H)
B4: MYT0515 (antibody, V domains shown)
VH: B1 VH with H52Y, L103H
VL: B1 VL
notes: IgG; gemtuzumab VH variant #34 (L103H)
B5: MYT0512 (antibody, V domains shown)
VH: B1 VH with H52Y, N100H
VL: B1 VL
notes: IgG; gemtuzumab VH variant #31 (N100H)
B6: MYT0501 (antibody, V domains shown)
VH: B1 VH with H52Y, D59H
VL: B1 VL
notes: IgG; gemtuzumab VH variant #20 (D59H)
B7: MYT0514 (antibody, V domains shown)
VH: B1 VH with H52Y, W102H
VL: B1 VL
notes: IgG; gemtuzumab VH variant #33 (W102H)
B8: MYT0506 (antibody, V domains shown)
VH: B1 VH with H52Y, F64H
VL: B1 VL
notes: IgG; gemtuzumab VH variant #25 (F64H)
B9: MYT0499 (antibody, V domains shown)
VH: B1 VH with H52Y, G57H
VL: B1 VL
notes: IgG; gemtuzumab VH variant #18 (G57H)
B10: MYT0496 (antibody, V domains shown)
VH: B1 VH with H52Y, Y54H
VL: B1 VL
notes: IgG; gemtuzumab VH variant #15 (Y54H)
B11: MYT0505 (antibody, V domains shown)
VH: B1 VH with H52Y, K63H
VL: B1 VL
notes: IgG; gemtuzumab VH variant #24 (K63H)
B12: MYT0504 (antibody, V domains shown)
VH: B1 VH with H52Y, Q62H
VL: B1 VL
notes: IgG; gemtuzumab VH variant #23 (Q62H)
B13: MYT0510 (antibody, V domains shown)
VH: B1 VH with H52Y, N98H
VL: B1 VL
notes: IgG; gemtuzumab VH variant #29 (N98H)
B14: MYT0508 (antibody, V domains shown)
VH: B1 VH with H52Y, N66H
VL: B1 VL
notes: IgG; gemtuzumab VH variant #27 (N66H)
B15: MYT0497 (antibody, V domains shown)
VH: B1 VH with H52Y, N55H
VL: B1 VL
notes: IgG; gemtuzumab VH variant #16 (N55H)
B16: MYT0500 (antibody, V domains shown)
VH: B1 VH with H52Y, T58H
VL: B1 VL
notes: IgG; gemtuzumab VH variant #19 (T58H)
B17: MYT0502 (antibody, V domains shown)
VH: B1 VH with H52Y, Y60H
VL: B1 VL
notes: IgG; gemtuzumab VH variant #21 (Y60H)
B18: MYT0503 (antibody, V domains shown)
VH: B1 VH with H52Y, N61H
VL: B1 VL
notes: IgG; gemtuzumab VH variant #22 (N61H)

What follows are binders tested against CD33 (Sino Biological, Cat #12238-H08H) (UniProt P20138 18-259) (assay: BLI, IgG captured on anti-human Fc sensor, 50 nM CD33, pH 7.4 vs pH 5.0).
Chain of CD33 (Sino Biological, Cat #12238-H08H) (P20138 18-259 limits assumed): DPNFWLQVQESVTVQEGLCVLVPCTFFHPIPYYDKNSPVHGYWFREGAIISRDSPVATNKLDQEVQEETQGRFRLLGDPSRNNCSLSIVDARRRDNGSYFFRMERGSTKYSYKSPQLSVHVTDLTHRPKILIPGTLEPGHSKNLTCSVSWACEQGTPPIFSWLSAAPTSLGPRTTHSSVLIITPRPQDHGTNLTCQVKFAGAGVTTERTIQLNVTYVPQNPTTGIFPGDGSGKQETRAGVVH
Description: Multiple CD33-binding monoclonal antibodies have been described in the literature and can be used as a template for engineering pH-dependent binding (Hamann P R et al (2002) “Gemtuzumab ozogamicin, a potent and selective anti-CD33 antibody-calicheamicin conjugate for treatment of acute myeloid leukemia.” Bioconjug Chem 13(1):47-58). Gemtuzumab (Heavy chain SEQ ID NO: 1, Light chain SEQ ID NO: 2) was selected as a CD33-binding monoclonal antibody for pH engineering via histidine scanning. Briefly, CDRs in the heavy chain were identified using the methods described by Kabat et al (Kabat et al. (1992) Sequences of Proteins of Immunological Interest, DIANE publishing) and IMGT (Lefranc M P (1999) “The IMGT unique numbering for Immunoglobulins, T cell receptors and Ig-like domains” The Immunologist 7, 132-136), and for each CDR, residues falling under either or both Kabat and IMGT CDR definitions were called as CDR residues. To generate pH-dependent sequence variants, individual amino acid residues within the heavy chain CDRs were systematically substituted with a histidine, one at a time (MYT0482-MYT0517). In cases where the starting CDR residue was a histidine, it was mutated to an alanine. Antibody variants with only one histidine or alanine mutation in a heavy chain CDR were generated by co-transfection of Expi293 cells with a) one heavy chain sequence variant, and b) the corresponding starting ABPC light chain using methods known to the art. After allowing for four days of protein expression, cell culture supernatants were collected, quantified by SDS-PAGE analysis, (FIG. 1), and the pH dependence of the variant was evaluated using biolayer interferometry (BLI) on an Octet RED 384 instrument. Briefly, cell culture supernatants were normalized to an antibody expression level of 25 μg/mL, and captured on an anti-human Fc sensor (Forte Bio). A baseline was established using 1×PBST (50 mM Potassium Phosphate Buffer+150 mM NaCl+0.05% Tween 20) pH 7.4, and the sensor was associated with 50 nM of CD33 (Sino Biological, Cat #12238) in 1×PBST pH 7.4 for 120 sec to generate an association curve. In the dissociation phase, the antibody-antigen complex on the sensor was exposed to 1×PBST pH 7.4 for 300-600 sec. Baseline, association, and dissociation were repeated using 1×MES (100 mM MES Buffer+150 mM NaCl+0.05% Tween 20) pH 5.0 throughout in a separate condition.

Row | binding result | Binder
1 | binds | B1
2 | binds | B2
3 | binds | B3
4 | binds | B4
5 | binds | B5
6 | binds | B6
7 | binds | B7
8 | binds | B8
9 | binds | B9
10 | binds | B10
11 | binds | B11
12 | binds | B12
13 | binds | B13
14 | binds | B14
15 | binds | B15
16 | binds | B16
17 | binds | B17
18 | binds | B18
